From patent US20240123029A1

Target: Recombinant human mannose binding lectin (MBL) (human) (UniProt P11226)
Sequence (P11226 21-248 limits assumed): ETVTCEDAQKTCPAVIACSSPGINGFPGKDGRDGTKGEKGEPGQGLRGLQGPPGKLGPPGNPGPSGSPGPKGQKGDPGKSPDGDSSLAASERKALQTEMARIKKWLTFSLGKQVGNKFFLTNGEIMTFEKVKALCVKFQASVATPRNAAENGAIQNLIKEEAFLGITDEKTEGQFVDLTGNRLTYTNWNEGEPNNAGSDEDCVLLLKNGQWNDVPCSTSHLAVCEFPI

## Biotinylated SARS-CoV-2 S protein, His Tag, active trimer (from UniProt P0DTC2 16-1213) (other; other documents disagree on this pair)
  EC50 (read off the curve): 3 nM
